Earlier results in PMC5264612.

Assays:
MftA = MftA (UniProt P9WJ80)
MftC = MftC (UniProt P9WJ78)
Chain of UniProt P9WJ78 (P9WJ78 whole entry): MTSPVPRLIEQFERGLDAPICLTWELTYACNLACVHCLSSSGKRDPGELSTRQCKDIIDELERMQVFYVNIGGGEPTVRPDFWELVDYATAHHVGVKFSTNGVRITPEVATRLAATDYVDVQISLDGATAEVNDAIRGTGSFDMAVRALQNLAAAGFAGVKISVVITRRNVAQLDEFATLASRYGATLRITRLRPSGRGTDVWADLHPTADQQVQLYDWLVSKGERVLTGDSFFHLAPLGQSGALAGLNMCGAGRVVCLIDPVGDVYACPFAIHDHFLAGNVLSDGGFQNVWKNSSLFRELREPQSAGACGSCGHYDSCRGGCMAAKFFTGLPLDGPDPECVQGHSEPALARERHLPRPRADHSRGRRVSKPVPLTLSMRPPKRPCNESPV

Chain of UniProt P9WJ80 (P9WJ80 whole entry): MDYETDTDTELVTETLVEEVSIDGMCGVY

For MftB (from UniProt A0PM48), the Kd (MftA) is listed as 0.12 µM and the Kd (MftC) is listed as 2 µM.
